The source of these data is patent publication US5981167A, “Surface plasmon resonance based enzymatic assay” (priority 1998, dated 1999).

A value given as a limit tells only on which side of the number the result lay.

As a reminder, the Km is the substrate concentration at which the rate is half of its maximum.

Assay [1] deals with HCV protease His-NS3(183)Δ4AHT. The conditions noted are these: concentrated enzyme.
Assay [2] addresses maturation site peptide […] (CMV).
For assay [3], the system named is in vitro-translated 5A/5B substrate. Description: Trans-cleavage assay in the presence of 4A peptide. It counts as biochemical, HCV. The conditions noted are these: refolded protein. From the text: Precipitation of protein occurred at the last step of dialysis, and the soluble protein was clarified by centrifugation. The overall protein recovery was about 0.10%.

Regarding Biotin-DTEDVVAC SMSYTWTGK-pY, the “time to 50% substrate cleavage” value in assay [1] was no more than 1 h.
For the molecule “CMV protease, refolded wild type (from UniProt P16753) (enzyme)”, in assay [2], the Km was 1020 µM.

B1: HisHIV183: HCV NS3 protease without solubilizing motif, refolded from E. coli inclusion body pellet (protein)
chain: APITAYAQQTRGLLGCIITSLTGRDKNQVEGEVQIVSTATQTFLATCINGVCWTVYHGAGTRTIASPKGPVIQTYTNVDQDLVGWPAPQGSRSLTPCTCGSSDLYLVTRHADVIPVRRRGDSRGSLLSPRPISYLKGSSGGPLLCPTGHAVGLFRAAVCTRGVAKAVDFIPVENLETTMRSPV
With B1, the “activity in trans-cleavage assay” value in assay [3] is listed as “active”.
